In patent US20260001928A1 (CORTERIA PHARMACEUTICALS, priority 2022, published 2026):
*1 amine or outer side, *2 acyl side, *3 side chain or, on linkers, in order; H or OH if unused. Side-chain parts run from the residue outwards. [ ]: non-standard residue; d: D form. The star is where a group is joined. C18 diacid = O=C(O)CCCCCCCCCCCCCCCCC(=O)*; C16 diacid = O=C(O)CCCCCCCCCCCCCCC(=O)*; γGlu = O=C(O)[C@H](CCC(=O)[*:2])N[*:1]; αMeL = CC(C)C[C@](C)(N)C(=O)O; Api = NC1(C(=O)O)CCNCC1; AEEA = NCCOCCOCC(=O)O; Aib = CC(C)(N)C(=O)O; Propionyl = CCC(=O)*; Butyryl = CCCC(=O)*

T1: CRF1R receptor (UniProt P34998 24-415, limits assumed)
T1 sequence (looked up): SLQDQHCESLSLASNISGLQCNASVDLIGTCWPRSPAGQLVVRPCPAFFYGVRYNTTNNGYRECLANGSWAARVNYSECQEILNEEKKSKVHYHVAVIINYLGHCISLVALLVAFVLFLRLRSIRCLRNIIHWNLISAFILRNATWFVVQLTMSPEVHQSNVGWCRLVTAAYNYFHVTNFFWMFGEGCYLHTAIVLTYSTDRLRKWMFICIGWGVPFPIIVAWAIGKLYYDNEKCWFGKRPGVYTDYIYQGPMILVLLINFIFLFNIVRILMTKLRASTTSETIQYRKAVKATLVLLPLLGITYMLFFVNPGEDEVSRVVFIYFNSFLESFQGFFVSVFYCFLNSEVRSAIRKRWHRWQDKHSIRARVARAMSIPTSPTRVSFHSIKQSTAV

B1: SEQ ID NO 57 (peptide)
peptide: Ac-IVLSLD[dV]PIKLK([γGlu-C16 diacid])KILLEQEKQKKQREQAETN[Api]QILAQV-NH2
SMILES: CC[C@H](C)[C@H](NC(C)=O)C(=O)N[C@H](C(=O)N[C@@H](CC(C)C)C(=O)N[C@@H](CO)C(=O)N[C@@H](CC(C)C)C(=O)N[C@@H](CC(=O)O)C(=O)N[C@@H](C(=O)N1CCC[C@H]1C(=O)N[C@H](C(=O)N[C@@H](CCCCN)C(=O)N[C@@H](CC(C)C)C(=O)N[C@@H](CCCCNC(=O)CC[C@H](NC(=O)CCCCCCCCCCCCCCC(=O)O)C(=O)O)C(=O)N[C@@H](CCCCN)C(=O)N[C@H](C(=O)N[C@@H](CC(C)C)C(=O)N[C@@H](CC(C)C)C(=O)N[C@@H](CCC(=O)O)C(=O)N[C@@H](CCC(N)=O)C(=O)N[C@@H](CCC(=O)O)C(=O)N[C@@H](CCCCN)C(=O)N[C@@H](CCC(N)=O)C(=O)N[C@@H](CCCCN)C(=O)N[C@@H](CCCCN)C(=O)N[C@@H](CCC(N)=O)C(=O)N[C@@H](CCCNC(=N)N)C(=O)N[C@@H](CCC(=O)O)C(=O)N[C@@H](CCC(N)=O)C(=O)N[C@@H](C)C(=O)N[C@@H](CCC(=O)O)C(=O)N[C@H](C(=O)N[C@@H](CC(N)=O)C(=O)NC1(C(=O)N[C@@H](CCC(N)=O)C(=O)N[C@H](C(=O)N[C@@H](CC(C)C)C(=O)N[C@@H](C)C(=O)N[C@@H](CCC(N)=O)C(=O)N[C@H](C(N)=O)C(C)C)[C@@H](C)CC)CCNCC1)[C@@H](C)O)[C@@H](C)CC)[C@@H](C)CC)C(C)C)C(C)C
B2: SEQ ID NO 99 (peptide)
peptide: Ac-VLSLD[dV]PIKLK([AEEA-AEEA-γGlu-C18 diacid])KILLEQEKQKKQREQAETN[Aib]QILAQV-NH2
SMILES: CC[C@H](C)[C@H](NC(=O)[C@H](CCC(N)=O)NC(=O)C(C)(C)NC(=O)[C@H](CC(N)=O)NC(=O)[C@@H](NC(=O)[C@H](CCC(=O)O)NC(=O)[C@H](C)NC(=O)[C@H](CCC(N)=O)NC(=O)[C@H](CCC(=O)O)NC(=O)[C@H](CCCNC(=N)N)NC(=O)[C@H](CCC(N)=O)NC(=O)[C@H](CCCCN)NC(=O)[C@H](CCCCN)NC(=O)[C@H](CCC(N)=O)NC(=O)[C@H](CCCCN)NC(=O)[C@H](CCC(=O)O)NC(=O)[C@H](CCC(N)=O)NC(=O)[C@H](CCC(=O)O)NC(=O)[C@H](CC(C)C)NC(=O)[C@H](CC(C)C)NC(=O)[C@@H](NC(=O)[C@H](CCCCN)NC(=O)[C@H](CCCCNC(=O)COCCOCCNC(=O)COCCOCCNC(=O)CC[C@H](NC(=O)CCCCCCCCCCCCCCCCC(=O)O)C(=O)O)NC(=O)[C@H](CC(C)C)NC(=O)[C@H](CCCCN)NC(=O)[C@@H](NC(=O)[C@@H]1CCCN1C(=O)[C@H](NC(=O)[C@H](CC(=O)O)NC(=O)[C@H](CC(C)C)NC(=O)[C@H](CO)NC(=O)[C@H](CC(C)C)NC(=O)[C@@H](NC(C)=O)C(C)C)C(C)C)[C@@H](C)CC)[C@@H](C)CC)[C@@H](C)O)C(=O)N[C@@H](CC(C)C)C(=O)N[C@@H](C)C(=O)N[C@@H](CCC(N)=O)C(=O)N[C@H](C(N)=O)C(C)C
B3: SEQ ID NO 78 (peptide)
peptide: Propionyl-VLSLD[dV]PIKLK([γGlu-C16 diacid])KILLEQEKQKKQREQAETN[Aib]QILAQV-NH2
SMILES: CCC(=O)N[C@H](C(=O)N[C@@H](CC(C)C)C(=O)N[C@@H](CO)C(=O)N[C@@H](CC(C)C)C(=O)N[C@@H](CC(=O)O)C(=O)N[C@@H](C(=O)N1CCC[C@H]1C(=O)N[C@H](C(=O)N[C@@H](CCCCN)C(=O)N[C@@H](CC(C)C)C(=O)N[C@@H](CCCCNC(=O)CC[C@H](NC(=O)CCCCCCCCCCCCCCC(=O)O)C(=O)O)C(=O)N[C@@H](CCCCN)C(=O)N[C@H](C(=O)N[C@@H](CC(C)C)C(=O)N[C@@H](CC(C)C)C(=O)N[C@@H](CCC(=O)O)C(=O)N[C@@H](CCC(N)=O)C(=O)N[C@@H](CCC(=O)O)C(=O)N[C@@H](CCCCN)C(=O)N[C@@H](CCC(N)=O)C(=O)N[C@@H](CCCCN)C(=O)N[C@@H](CCCCN)C(=O)N[C@@H](CCC(N)=O)C(=O)N[C@@H](CCCNC(=N)N)C(=O)N[C@@H](CCC(=O)O)C(=O)N[C@@H](CCC(N)=O)C(=O)N[C@@H](C)C(=O)N[C@@H](CCC(=O)O)C(=O)N[C@H](C(=O)N[C@@H](CC(N)=O)C(=O)NC(C)(C)C(=O)N[C@@H](CCC(N)=O)C(=O)N[C@H](C(=O)N[C@@H](CC(C)C)C(=O)N[C@@H](C)C(=O)N[C@@H](CCC(N)=O)C(=O)N[C@H](C(N)=O)C(C)C)[C@@H](C)CC)[C@@H](C)O)[C@@H](C)CC)[C@@H](C)CC)C(C)C)C(C)C
B4: SEQ ID NO 101 (peptide)
peptide: Ac-VLSLD[dV]PIKLK([AEEA-AEEA-γGlu-C18 diacid])KILLEQEKQKKQREQAETNAQILAQV-NH2
SMILES: CC[C@H](C)[C@H](NC(=O)[C@H](CCC(N)=O)NC(=O)[C@H](C)NC(=O)[C@H](CC(N)=O)NC(=O)[C@@H](NC(=O)[C@H](CCC(=O)O)NC(=O)[C@H](C)NC(=O)[C@H](CCC(N)=O)NC(=O)[C@H](CCC(=O)O)NC(=O)[C@H](CCCNC(=N)N)NC(=O)[C@H](CCC(N)=O)NC(=O)[C@H](CCCCN)NC(=O)[C@H](CCCCN)NC(=O)[C@H](CCC(N)=O)NC(=O)[C@H](CCCCN)NC(=O)[C@H](CCC(=O)O)NC(=O)[C@H](CCC(N)=O)NC(=O)[C@H](CCC(=O)O)NC(=O)[C@H](CC(C)C)NC(=O)[C@H](CC(C)C)NC(=O)[C@@H](NC(=O)[C@H](CCCCN)NC(=O)[C@H](CCCCNC(=O)COCCOCCNC(=O)COCCOCCNC(=O)CC[C@H](NC(=O)CCCCCCCCCCCCCCCCC(=O)O)C(=O)O)NC(=O)[C@H](CC(C)C)NC(=O)[C@H](CCCCN)NC(=O)[C@@H](NC(=O)[C@@H]1CCCN1C(=O)[C@H](NC(=O)[C@H](CC(=O)O)NC(=O)[C@H](CC(C)C)NC(=O)[C@H](CO)NC(=O)[C@H](CC(C)C)NC(=O)[C@@H](NC(C)=O)C(C)C)C(C)C)[C@@H](C)CC)[C@@H](C)CC)[C@@H](C)O)C(=O)N[C@@H](CC(C)C)C(=O)N[C@@H](C)C(=O)N[C@@H](CCC(N)=O)C(=O)N[C@H](C(N)=O)C(C)C
B5: SEQ ID NO 112 (peptide)
peptide: Ac-IVLSLD[dV]PIK[αMeL]K([AEEA-AEEA-γGlu-C18 diacid])KILLEQEKQKKQREQAETNAQILAQV-NH2
SMILES: CC[C@H](C)[C@H](NC(C)=O)C(=O)N[C@H](C(=O)N[C@@H](CC(C)C)C(=O)N[C@@H](CO)C(=O)N[C@@H](CC(C)C)C(=O)N[C@@H](CC(=O)O)C(=O)N[C@@H](C(=O)N1CCC[C@H]1C(=O)N[C@H](C(=O)N[C@@H](CCCCN)C(=O)N[C@@](C)(CC(C)C)C(=O)N[C@@H](CCCCNC(=O)COCCOCCNC(=O)COCCOCCNC(=O)CC[C@H](NC(=O)CCCCCCCCCCCCCCCCC(=O)O)C(=O)O)C(=O)N[C@@H](CCCCN)C(=O)N[C@H](C(=O)N[C@@H](CC(C)C)C(=O)N[C@@H](CC(C)C)C(=O)N[C@@H](CCC(=O)O)C(=O)N[C@@H](CCC(N)=O)C(=O)N[C@@H](CCC(=O)O)C(=O)N[C@@H](CCCCN)C(=O)N[C@@H](CCC(N)=O)C(=O)N[C@@H](CCCCN)C(=O)N[C@@H](CCCCN)C(=O)N[C@@H](CCC(N)=O)C(=O)N[C@@H](CCCNC(=N)N)C(=O)N[C@@H](CCC(=O)O)C(=O)N[C@@H](CCC(N)=O)C(=O)N[C@@H](C)C(=O)N[C@@H](CCC(=O)O)C(=O)N[C@H](C(=O)N[C@@H](CC(N)=O)C(=O)N[C@@H](C)C(=O)N[C@@H](CCC(N)=O)C(=O)N[C@H](C(=O)N[C@@H](CC(C)C)C(=O)N[C@@H](C)C(=O)N[C@@H](CCC(N)=O)C(=O)N[C@H](C(N)=O)C(C)C)[C@@H](C)CC)[C@@H](C)O)[C@@H](C)CC)[C@@H](C)CC)C(C)C)C(C)C
B6: SEQ ID NO 79 (peptide)
peptide: Butyryl-VLSLD[dV]PIKLK([γGlu-C16 diacid])KILLEQEKQKKQREQAETN[Aib]QILAQV-NH2
SMILES: CCCC(=O)N[C@H](C(=O)N[C@@H](CC(C)C)C(=O)N[C@@H](CO)C(=O)N[C@@H](CC(C)C)C(=O)N[C@@H](CC(=O)O)C(=O)N[C@@H](C(=O)N1CCC[C@H]1C(=O)N[C@H](C(=O)N[C@@H](CCCCN)C(=O)N[C@@H](CC(C)C)C(=O)N[C@@H](CCCCNC(=O)CC[C@H](NC(=O)CCCCCCCCCCCCCCC(=O)O)C(=O)O)C(=O)N[C@@H](CCCCN)C(=O)N[C@H](C(=O)N[C@@H](CC(C)C)C(=O)N[C@@H](CC(C)C)C(=O)N[C@@H](CCC(=O)O)C(=O)N[C@@H](CCC(N)=O)C(=O)N[C@@H](CCC(=O)O)C(=O)N[C@@H](CCCCN)C(=O)N[C@@H](CCC(N)=O)C(=O)N[C@@H](CCCCN)C(=O)N[C@@H](CCCCN)C(=O)N[C@@H](CCC(N)=O)C(=O)N[C@@H](CCCNC(=N)N)C(=O)N[C@@H](CCC(=O)O)C(=O)N[C@@H](CCC(N)=O)C(=O)N[C@@H](C)C(=O)N[C@@H](CCC(=O)O)C(=O)N[C@H](C(=O)N[C@@H](CC(N)=O)C(=O)NC(C)(C)C(=O)N[C@@H](CCC(N)=O)C(=O)N[C@H](C(=O)N[C@@H](CC(C)C)C(=O)N[C@@H](C)C(=O)N[C@@H](CCC(N)=O)C(=O)N[C@H](C(N)=O)C(C)C)[C@@H](C)CC)[C@@H](C)O)[C@@H](C)CC)[C@@H](C)CC)C(C)C)C(C)C

Key:
[1] = molecular target: human corticotropin-releasing factor 2a (CRF2a receptor) (human), Q13324; assay: cell-based or functional assay
Chain of human corticotropin-releasing factor 2a (CRF2a receptor) (human), Q13324 (Q13324 20-411): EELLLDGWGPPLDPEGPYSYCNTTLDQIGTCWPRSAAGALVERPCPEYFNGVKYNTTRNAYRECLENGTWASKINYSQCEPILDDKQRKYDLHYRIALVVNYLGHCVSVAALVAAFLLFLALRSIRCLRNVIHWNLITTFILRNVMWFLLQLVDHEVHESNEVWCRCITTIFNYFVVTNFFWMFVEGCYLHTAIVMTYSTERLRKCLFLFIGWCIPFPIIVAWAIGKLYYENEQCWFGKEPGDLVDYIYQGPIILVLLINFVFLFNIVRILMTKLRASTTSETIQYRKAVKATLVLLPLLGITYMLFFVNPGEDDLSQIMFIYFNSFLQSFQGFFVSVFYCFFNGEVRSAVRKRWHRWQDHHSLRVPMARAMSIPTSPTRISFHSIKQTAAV

[2] = molecular target: T1, CRF1R receptor; assay: cell-based or functional assay

| Binder | EC50 [nM] (cAMP) [1] | Emax (% I) [2] [%] |
| --- | --- | --- |
| B1 | 0.39 | 24 |
| B2 | 6.07 | 0 |
| B3 | 0.73 | 7 |
| B4 | 1.74 | 0 |
| B5 | 0.28 | 3 |
| B6 | 0.38 | 10 |
